Data set [1] is described as follows: viscometry; falling ball micro viscometer, 20 °C, Tpm 1.0 mg/mL (15 µM), 30 mM HEPES-Na pH 7.3, 100 mM NaCl, 4 mM DTT; end-to-end (N- and C-ends) interaction of Tpm dimers. Conditions: other: viscometry.
The target of data set [2] is F-actin (skeletal rabbit muscle actin) (rabbit) (UniProt P68135).
Data set [3] shares this target. Briefly: co-sedimentation; without TnT1; 10 μM F-actin, Tpm 0 to 7.5 μM, 20 °C, 30 mM HEPES-Na pH 7.3, 200 mM NaCl; 100,000 g 40 min, SDS-PAGE of pellet and supernatant.
Data set [4] shares this target. Kind of data set: light scattering on heating; 20 μM phalloidin-stabilized F-actin, 10.5 μM Tpm, 30 mM HEPES-Na pH 7.3, 100 mM NaCl; 350 nm, heating 1 °C/min; Tdiss is the temperature of a 50% decrease in light scattering.
The target is the same in data set [5]. Kind of data set: co-sedimentation; with 1.5 μM TnT1 (fragment of human cardiac troponin T); 10 μM F-actin, Tpm 0 to 7.5 μM, 20 °C, 30 mM HEPES-Na pH 7.3, 255 mM NaCl; 100,000 g 40 min, SDS-PAGE of pellet and supernatant.
For data set [6], the target named is α-chain of tropomyosin (αTpm, Tpm 1.1), single chain (human). Briefly: cross-linking; ααTpm, κκTpm or their equimolar mixture heated to 70 °C, cooled, dimers cross-linked at SH groups with DTNB; SDS-PAGE without β-mercaptoethanol.
The target in data set [7] is F-actin (skeletal rabbit muscle actin) (rabbit) (UniProt P68135). Briefly: co-sedimentation; without TnT1; 10 μM F-actin, Tpm 0 to 7.5 μM, 20 °C, 30 mM HEPES-Na pH 7.3, 200 mM NaCl; 100,000 g 40 min, SDS-PAGE of pellet and supernatant. The source holds these as a separate data set.

Where two headings read alike, the source gives them in different places.

Consider “ααTpm homodimer (alpha-tropomyosin, Tpm 1.1)”, for which the “viscosity of the Tpm solution” value in data set [1] amounted to 0.41 ± 0.04 mPa·s.

The substance “ααTpm homodimer (alpha-tropomyosin, Tpm 1.1) (natural protein)” registered a reduction of the sliding velocity of F-actin (2.2 µm/s) in the in vitro motility assay in data set [2] of 50%. The same substance yielded a K50% (Tpm concentration at half-saturation of F-actin) in data set [3] of 1.23 µM. In data set [4], this substance registered a Tdiss (temperature of 50% dissociation of the complex with F-actin) of 45.9 °C.

In data set [5], ακTpm heterodimer (complex) showed a K50% with TnT1 (Tpm concentration at half-saturation of F-actin) of 0.71 µM.

For the substance “κ-chain of tropomyosin (κTpm, Tpm 1.2), single chain (natural protein)”, the share of heterodimers among the dimers formed from an equimolar mixture in data set [6] was less than 90%.

For “κκTpm homodimer (kappa-tropomyosin, Tpm 1.2)”, the “viscosity of the Tpm solution” value in data set [1] was found to be 0.09 ± 0.01 mPa·s.

Substance “κκTpm homodimer (kappa-tropomyosin, Tpm 1.2) (natural protein)” displayed a reduction of the sliding velocity of F-actin (2.2 µm/s) in the in vitro motility assay in data set [2] of 30%. In addition, the K50% (Tpm concentration at half-saturation of F-actin) was found to be 1.29 µM in data set [3] and 2.37 µM in data set [7]. Also, the K50% with TnT1 (Tpm concentration at half-saturation of F-actin) in data set [5] amounted to 0.88 µM. Besides, in data set [4], the Tdiss (temperature of 50% dissociation of the complex with F-actin) came to 42.1 °C.

For the origin of these results see publication PMC10179609.
